# Reference: patent US20170052184A1
# Where two headings read alike, the source gives them in different places.
# Columns and labels:
# [1] = target: bovine serum albumin (bovine) (UniProt P02769); test: EIA, BSA control
# [2] = target: bovine serum albumin (BSA) (bovine) (UniProt P02769); test: EIA, BSA background
# [3] = target: bovine serum albumin (BSA) (bovine) (UniProt P02769); test: EIA, BSA background; remark: listed apart in the source
# Sequence of bovine serum albumin (BSA) (bovine) (P02769 25-607 limits assumed): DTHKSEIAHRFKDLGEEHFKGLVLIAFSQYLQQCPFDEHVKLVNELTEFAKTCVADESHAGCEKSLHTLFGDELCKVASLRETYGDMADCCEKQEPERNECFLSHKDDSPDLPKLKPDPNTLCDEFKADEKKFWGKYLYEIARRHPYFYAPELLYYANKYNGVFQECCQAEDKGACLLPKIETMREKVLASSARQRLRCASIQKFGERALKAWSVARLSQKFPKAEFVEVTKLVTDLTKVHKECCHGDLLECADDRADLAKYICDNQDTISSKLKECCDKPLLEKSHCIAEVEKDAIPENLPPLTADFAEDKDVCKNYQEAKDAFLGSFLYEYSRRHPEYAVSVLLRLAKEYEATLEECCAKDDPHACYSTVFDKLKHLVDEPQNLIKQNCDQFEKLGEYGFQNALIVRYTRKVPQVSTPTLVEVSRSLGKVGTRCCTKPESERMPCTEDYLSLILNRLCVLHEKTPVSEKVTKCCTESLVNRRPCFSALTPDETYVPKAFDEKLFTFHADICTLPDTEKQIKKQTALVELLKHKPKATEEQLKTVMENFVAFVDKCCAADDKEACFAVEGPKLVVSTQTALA
# Sequence of bovine serum albumin (bovine) (P02769 25-607 limits assumed): as above
Binder,Reactivity (OD 492 nm) [1],OD (A492) [2],OD (A492) [3]
"HCV 208A-442 (antibody, V domains shown) VH: DVQLQESGPGLVNPSQSLSLTCSVTGYSITSGYYWIWIRQFPGNKLEWMGYIKYDGGNNYSPSLKNRISIARDTSKNQFFLKLNSVTIEDTATYYCTRGSDSFDYWGQGTTLTVSS VL: DIVLTQSPASLAVSLGQRAIISCKASQSVSFAGTNLMHWYQQKPGQQPKLLIYRASNLETGVPTRFSGSGSRTDFTLNIHPVEEDDAATYYCQQSREYYTFGGGTKLEIKR",0.06 OD units,0.06 OD,0.14 OD
"HCV 208B-178 (antibody, V domains shown) VH: DVKLVESGGGLVKLGGSLKLSCAASGFTFSSYYMSWVRQTPEKRLELVAAINSNGGSTYYPDTVKGRFTISRDNAKNTLYLQMSSLKSEDTALYYCARHGGLGRRDWYFDVWGAGTTVTVSS VL: DIVLTQSPASLAVSLGQRATISCRASESVDNYGISFMHWYQQKPGQPPKLLIYRASNLESGIPARFSGSGSRTDFTLTINPVETDDVATYYCQQSNKDPFTFGSGAKLEIKR",0.07 OD units,0.07 OD,0.08 OD
"HCV 208B-327 (antibody, V domains shown) VH: EVQLVESGGGLVKPGGSLKLSCAASGFTFSDSYMYWVRQTPDQRLEWVATISDGGSYTFYPDSVKGRFTISRDNAQNNLYLQMSSLKSEDTAMYYCASPHAGYFGWFAYWGRGTLVTVSA VL: DIVMTQAAFSNPVTPGTSVSISCRSSKSLLHSNGITYLYWYLQKPGQSPQLLIYQMSKIASGVPDRFRSSGSGTDFTLRISRVEAADVGVYYCAQNLELPWTFGGGTKLEIKR",0.05 OD units,0.08 OD,0.09 OD
"HCV 208B-353 (antibody, V domains shown) VH: EVQLVESGGDLVKPGGSLKLSCAASGFTFNHYGMSWVRQPPDKRLEWVATISSGGGYTYYPDSVKGRFTISRDNAKDTLSLQMSSLRSGDTAVYYCASLYGSLFAYWGQGTLVTVSA VL: DIVMTQSQKFMSTTVGDRVRVTCKASQNVGTAVAWYQQKPGQSPKLLIYSASNRYTGVPDRFTGSGSGTDFTLTITNMQSEDLADYFCQQYSTYPLTFGSGAKLEIKR",0.07 OD units,0.06 OD,0.1 OD
"HCV 208B-515 (antibody, V domains shown) VH: QVQLQQPGAELVKPGASLKLSCRASGYTFTSYWIHWVKQRPGQGLEWIGEIDPSDSYTNYNQKFKGKATLTVDKSSRAAYMQLSSLTSEDSAVYYCARHYYGVFDSWGQGTKLTVSS VL: QIVFTQYPAIMSASLGERVTMTCTASSSVTSSYLHWFQQKPGSSPKLWIYSTSNPGSGVPARFSGRGSGTSYSLSISSMEAEDAATYYCLQFHRSPWTFGGGTKLEIRR",0.06 OD units,0.07 OD,0.08 OD
"HCV 208B-517 (antibody, V domains shown) VH: QVQLKQSGPGLVQPSQSLSITCTVSGFSLITHGVHWVRQSPGKGLEWLGVIWSGGSTDYNAAFISRLSISKDTSKSQVFLKMSSLQADDTAIYYCARNGGATAFDYWGQGTTLTVSS VL: DIVMTQSPATLSVTPGDRVSLSCRASQSISDYLHWYQQKSHESPRLLIKYASQSISGIPSRFRGSGSGSHFTLSINSVEPEDVGVYYCQNGHSFPWTFGGGTKLEIKR",0.11 OD units,0.07 OD,0.12 OD
"HCV 208B-793 (antibody, V domains shown) VH: EVKLVESGGGLVQPGGSLKLSCAASGFTFSSYAMSWVRQTPERRLEWVTYISNGGGSTYYSDTVKGRFTFSRDNAKNTLYLQMSSLKSEDTAMYYCARHGLGRTGFASWGQGTLVTVSA VL: DIVMTQSHKFMSTSVGDRVSITCKASQDVGTAVAWYQQKPGQSPKLLIYWASTRHTGVPDRFTGSGSGTDFTLTISNVQSEDLADYFCQQYSNYLTFGAGTKLEVKR",0.13 OD units,0.42 OD,0.2 OD
